Assay results as given in US20060275803A1, “Rat and mouse members of the CRISP family of genes” (Wyeth, priority 2005, published 2006).

What was measured:
rCRISPA (rCRISP1) = target: T1, rCRISPA (rCRISP1) (Rattus norvegicus, UniProt P12020); assay: Protease activity screen: cleavage of substrate peptides by native rCRISPA (+DANA protocol), measured by fluorescence; type: biochemical; settings: 5 μM substrate peptide, 1 μg enzyme, 100 mM NaCl, 25 mM Tris-Cl, pH 7.5; fluorescence at ten minute intervals for 130 minutes; FIG. 13
T1 construct: Native rCRISPA (rCRISP1) protein, purified with DANA present; from tissue; host or cells: rat epididymis
T1 sequence (P12020 20-246): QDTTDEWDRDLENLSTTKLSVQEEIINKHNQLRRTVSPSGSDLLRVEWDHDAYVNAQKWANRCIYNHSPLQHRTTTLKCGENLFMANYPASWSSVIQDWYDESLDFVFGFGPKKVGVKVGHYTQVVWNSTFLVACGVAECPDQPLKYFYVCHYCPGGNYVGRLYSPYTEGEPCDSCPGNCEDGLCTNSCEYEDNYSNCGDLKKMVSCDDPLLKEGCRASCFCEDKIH
Method: FIG. 13 is a graph showing rCRISPA (rCRISP1) protease activity (assay conditions: 5 μM substrate peptide, 1 μg enzyme, 100 mM NaCl, 25 mM Tris-Cl, pH 7.5). A. Cleaved peptides A04 (RGARARLG), N08 (RKRRAPLA), N12 (AKRAASQI), N17 (RKRRAVLT), B22 (APQRFGKK), B17 (RQRYGKRS), B23 (RVKRYRQS), H03 (RNKRAVQG). B. Cleaved peptides B20 (PQRFGRNT), C16 (RVLGLKAH), J21 (LRNRAQSG), H07 (RVKRQVRS), H11 (RRLLRAIP), N05 (RARRELAP), H01 (RKKRSTKK), O22 (GGVRGPRV), O16 (AATRRQAV), O23 (KNVAMQKG), G24 (RRKRSTRE), A09 (RMRRYADA), M02 (EKQRIIGG), H17 (NGLRADPM). C. Uncleaved peptides L16 (KTPRWGG), N10 (FYRADQPR), B11 (AAGVAPLS), J03 (PQLHSTGG), C01 (GPQGLLGA), K11 (VIPRSGGS), M07 (GLQRALEI), A01 (WQGGRRKF), H02 (RAKRSVHF), A10 (SAARPAPP), M16 (RSRREADL), A05 (SYRKVLGQ), M18 (VHRDMAAR), C23 (RDAQAHPG), M09 (GSQHIRAE), E19 (RLGREGVQ), D06 (ALAEAMKK).
Native rCRISPA (rCRISP1) protein, purified with DANA present (see Example 4), was screened for the ability to cleave 360 unique peptides using the commercially available peptide substrate set (catalog # PrSS-360-75, JPT Peptide Technologies, Springfield, Va.). […] The substrate peptides cleaved by rCRISPA in this assay are represented by blue and green traces noted in FIG. 13. Peptides that were not cleaved by rCRISPA are also noted in FIG. 13.

substrate peptide = assay: Protease activity of rCRISPA purified with or without the sialidase inhibitor DANA; type: biochemical, rat
From the text: The conservation of protease activity between CRISPA and CRISPC is predicted from both the primary amino acid sequence of the PR-1 domain and the overall domain structure conserved among Tex31 and all mammalian CRISPs. The PR-1 domain of Tex31 is hypothesized to contain a basic substrate recognition site with the predicted catalytic residues His130 and Glu115. The mammalian CRISPs have these residues conserved in the PR-1 domain. […] A sialylated glycan on rCRISPA may be influencing the protein's native confirmation and ability to recognize, bind, or cleave its substrate. If rat CRISPC is glycosylated and sialylated, the glycan may also be involved in the protein's confirmation and ability to recognize, bind, or cleave its substrate.
A protocol for the purification of rCRISPA (rCRISP1) from the epididymis was published in 1997 (Hall J. C. & Tubbs C. E., Prep. Biochem. Biotechnol. 27:239-51 (1997), incorporated herein by reference). Applicants have modified this protocol to include the following amounts of 2,3-dehydro-2-deoxy-N-acetyineuraminic acid (DANA) as an inhibitor of sialidase activity in each of the following buffers:
Protease activity was determined by measuring fluorescence (as per the manufacturer's protocol) at ten minute intervals for 130 minutes in the following assay conditions: […] substrate peptide, […] rCRISPA, 100 mM NaCl, 25 mM Tris-Cl, pH 7.5. […]

[1] = target: T2, substrate peptide B17 (RQRYGKRS) (not fully specified)
T2 chain: RQRYGKRS

[2] = target: T3, substrate peptide M18 (VHRDMAAR) (not fully specified)
T3 chain: VHRDMAAR

[3] = target: T4, substrate peptide C23 (RDAQAHPG) (not fully specified)
T4 chain: RDAQAHPG

[4] = target: T5, substrate peptide A05 (SYRKVLGQ) (not fully specified)
T5 chain: SYRKVLGQ

[5] = target: T6, substrate peptide H11 (RRLLRAIP) (not fully specified)
T6 chain: RRLLRAIP

[6] = target: T7, substrate peptide M07 (GLQRALEI) (not fully specified)
T7 chain: GLQRALEI

[7] = target: T8, substrate peptide M02 (EKQRIIGG) (not fully specified)
T8 chain: EKQRIIGG

[8] = target: T9, substrate peptide H02 (RAKRSVHF) (not fully specified)
T9 chain: RAKRSVHF

[9] = target: T10, substrate peptide J03 (PQLHSTGG) (not fully specified)
T10 chain: PQLHSTGG

[10] = target: T11, substrate peptide M09 (GSQHIRAE) (not fully specified)
T11 chain: GSQHIRAE

[11] = target: T12, substrate peptide N17 (RKRRAVLT) (not fully specified)
T12 chain: RKRRAVLT

[12] = target: T13, substrate peptide O22 (GGVRGPRV) (not fully specified)
T13 chain: GGVRGPRV

[13] = target: T14, substrate peptide M16 (RSRREADL) (not fully specified)
T14 chain: RSRREADL

[14] = target: T15, substrate peptide O23 (KNVAMQKG) (not fully specified)
T15 chain: KNVAMQKG

[15] = target: T16, substrate peptide N08 (RKRRAPLA) (not fully specified)
T16 chain: RKRRAPLA

[16] = target: T17, substrate peptide C16 (RVLGLKAH) (not fully specified)
T17 chain: RVLGLKAH

[17] = target: T18, substrate peptide B22 (APQRFGKK) (not fully specified)
T18 chain: APQRFGKK

[18] = target: T19, substrate peptide O16 (AATRRQAV) (not fully specified)
T19 chain: AATRRQAV

[19] = target: T20, substrate peptide H03 (RNKRAVQG) (not fully specified)
T20 chain: RNKRAVQG

[20] = target: T21, substrate peptide G24 (RRKRSTRE) (not fully specified)
T21 chain: RRKRSTRE

[21] = target: T22, substrate peptide H17 (NGLRADPM) (not fully specified)
T22 chain: NGLRADPM

[22] = target: T23, substrate peptide H07 (RVKRQVRS) (not fully specified)
T23 chain: RVKRQVRS

[23] = target: T24, substrate peptide H01 (RKKRSTKK) (not fully specified)
T24 chain: RKKRSTKK

[24] = target: T25, substrate peptide E19 (RLGREGVQ) (not fully specified)
T25 chain: RLGREGVQ

[25] = target: T26, substrate peptide N10 (FYRADQPR) (not fully specified)
T26 chain: FYRADQPR

[26] = target: T27, substrate peptide B20 (PQRFGRNT) (not fully specified)
T27 chain: PQRFGRNT

[27] = target: T28, substrate peptide L16 (KTPRWGG) (not fully specified)
T28 chain: KTPRWGG

[28] = target: T29, substrate peptide A01 (WQGGRRKF) (not fully specified)
T29 chain: WQGGRRKF

[29] = target: T30, substrate peptide B11 (AAGVAPLS) (not fully specified)
T30 chain: AAGVAPLS

[30] = target: T31, substrate peptide J21 (LRNRAQSG) (not fully specified)
T31 chain: LRNRAQSG

[31] = target: T32, substrate peptide N12 (AKRAASQI) (not fully specified)
T32 chain: AKRAASQI

[32] = target: T33, substrate peptide C01 (GPQGLLGA) (not fully specified)
T33 chain: GPQGLLGA

[33] = target: T34, substrate peptide K11 (VIPRSGGS) (not fully specified)
T34 chain: VIPRSGGS

[34] = target: T35, substrate peptide D06 (ALAEAMKK) (not fully specified)
T35 chain: ALAEAMKK

[35] = target: T36, substrate peptide A10 (SAARPAPP) (not fully specified)
T36 chain: SAARPAPP

[36] = target: T37, substrate peptide A04 (RGARARLG) (not fully specified)
T37 chain: RGARARLG

[37] = target: T38, substrate peptide N05 (RARRELAP) (not fully specified)
T38 chain: RARRELAP

[38] = target: T39, substrate peptide A09 (RMRRYADA) (not fully specified)
T39 chain: RMRRYADA

[39] = target: T40, substrate peptide B23 (RVKRYRQS) (not fully specified)
T40 chain: RVKRYRQS

## RRKRSTRE [G24, substrate peptide of the commercial peptide substrate set PrSS-360-75, JPT Peptide Technologies]
rCRISPA (rCRISP1)
  cleavage of substrate peptide by rCRISPA (rCRISP1) protease activity: Cleaved

B1: native rCRISPA (rCRISP1) purified from epididymis in the presence of DANA (protein)
chain: T1 sequence (P12020 20-246)
Substrate peptide; purified using known procedures without DANA present
  protease activity of rCRISPA: lacking protease activity
Substrate peptide; purified with DANA present
  protease activity of rCRISPA: with protease activity
[1]
  protease activity (fluorescence of substrate peptide): Cleaved peptides B17 (RQRYGKRS)
[2]
  protease activity (fluorescence of substrate peptide): Uncleaved peptides M18 (VHRDMAAR)
[3]
  protease activity (fluorescence of substrate peptide): Uncleaved peptides C23 (RDAQAHPG)
[4]
  protease activity (fluorescence of substrate peptide): Uncleaved peptides A05 (SYRKVLGQ)
[5]
  protease activity (fluorescence of substrate peptide): Cleaved peptides H11 (RRLLRAIP)
[6]
  protease activity (fluorescence of substrate peptide): Uncleaved peptides M07 (GLQRALEI)
[7]
  protease activity (fluorescence of substrate peptide): Cleaved peptides M02 (EKQRIIGG)
[8]
  protease activity (fluorescence of substrate peptide): Uncleaved peptides H02 (RAKRSVHF)
[9]
  protease activity (fluorescence of substrate peptide): Uncleaved peptides J03 (PQLHSTGG)
[10]
  protease activity (fluorescence of substrate peptide): Uncleaved peptides M09 (GSQHIRAE)
[11]
  protease activity (fluorescence of substrate peptide): Cleaved peptides N17 (RKRRAVLT)
[12]
  protease activity (fluorescence of substrate peptide): Cleaved peptides O22 (GGVRGPRV)
[13]
  protease activity (fluorescence of substrate peptide): Uncleaved peptides M16 (RSRREADL)
[14]
  protease activity (fluorescence of substrate peptide): Cleaved peptides O23 (KNVAMQKG)
[15]
  protease activity (fluorescence of substrate peptide): Cleaved peptides N08 (RKRRAPLA)
[16]
  protease activity (fluorescence of substrate peptide): Cleaved peptides C16 (RVLGLKAH)
[17]
  protease activity (fluorescence of substrate peptide): Cleaved peptides B22 (APQRFGKK)
[18]
  protease activity (fluorescence of substrate peptide): Cleaved peptides O16 (AATRRQAV)
[19]
  protease activity (fluorescence of substrate peptide): Cleaved peptides H03 (RNKRAVQG)
[20]
  protease activity (fluorescence of substrate peptide): Cleaved peptides G24 (RRKRSTRE)
[21]
  protease activity (fluorescence of substrate peptide): Cleaved peptides H17 (NGLRADPM)
[22]
  protease activity (fluorescence of substrate peptide): Cleaved peptides H07 (RVKRQVRS)
[23]
  protease activity (fluorescence of substrate peptide): Cleaved peptides H01 (RKKRSTKK)
[24]
  protease activity (fluorescence of substrate peptide): Uncleaved peptides E19 (RLGREGVQ)
[25]
  protease activity (fluorescence of substrate peptide): Uncleaved peptides N10 (FYRADQPR)
[26]
  protease activity (fluorescence of substrate peptide): Cleaved peptides B20 (PQRFGRNT)
[27]
  protease activity (fluorescence of substrate peptide): Uncleaved peptides L16 (KTPRWGG)
[28]
  protease activity (fluorescence of substrate peptide): Uncleaved peptides A01 (WQGGRRKF)
[29]
  protease activity (fluorescence of substrate peptide): Uncleaved peptides B11 (AAGVAPLS)
[30]
  protease activity (fluorescence of substrate peptide): Cleaved peptides J21 (LRNRAQSG)
[31]
  protease activity (fluorescence of substrate peptide): Cleaved peptides N12 (AKRAASQI)
[32]
  protease activity (fluorescence of substrate peptide): Uncleaved peptides C01 (GPQGLLGA)
[33]
  protease activity (fluorescence of substrate peptide): Uncleaved peptides K11 (VIPRSGGS)
[34]
  protease activity (fluorescence of substrate peptide): Uncleaved peptides D06 (ALAEAMKK)
[35]
  protease activity (fluorescence of substrate peptide): Uncleaved peptides A10 (SAARPAPP)
[36]
  protease activity (fluorescence of substrate peptide): Cleaved peptides A04 (RGARARLG)
[37]
  protease activity (fluorescence of substrate peptide): Cleaved peptides N05 (RARRELAP)
[38]
  protease activity (fluorescence of substrate peptide): Cleaved peptides A09 (RMRRYADA)
[39]
  protease activity (fluorescence of substrate peptide): Cleaved peptides B23 (RVKRYRQS)
